{
  "source": "patent US20120315284A1",
  "about": "(KOREA RESEARCH INSTITUTE OF BIOSCIENCE AND BIOTECH, published 2012)",
  "binders": {"B1": {"name": "TIP41 in cell lysate (immunoprecipitated with TIP41 antibody; the cells' own TIP41) (other)", "chain": "MMIHGFQSSHRDFCFGPWKLTASKTHIMKSADVEKLADELHMPSLPEMMFGDNVLRIQHGSGFGIEFNATDALRCVNNYQGMLKVACAEEWQESRTEGEHSKEVIKPYDWTYTTDYKGTLLGESLKLKVVPTTDHIDTEKLKAREQIKFFEEVLLFEDELHDHGVSSLSVKIRVMPSSFFLLLRFFLRIDGVLIRMNDTRLYHEADKTYMLREYTSRESKISSLMHVPPSLFTEPNEISQYLPIKEAVCEKLIFPERIDPNPADSQKSTQVE", "notes": "also called TIPP41"}, "B2": {"name": "TIP41 (full length TIP41 protein expressed from the pHA vector in HEK293T cells) (other)", "chain": "B1 chain", "notes": "Cloned from liver cancer cell RNA into pHA; also called TIPRL; TOR Signaling Pathway Regulator-Like; not shown: HA tag of the pHA vector (pcDNA3.1 with HA tag)"}, "B3": {"name": "MKK7 fragment D5 (pGST vector, HEK293T) (other)", "chain": "AGCAAYMAPERIDPPDPTKPDYDIRADVWSLGISLVELATGQFPYKNCKTDFEVLTKVLQEEPPLLPGHMGFSGDFQSFVKDCLTKDHRKRPKYNKLLEHSFIKRYETLEVDVASWFKDVMAKTESPRTSGVLSQPHLPFFR", "notes": "also called MKK7-D5; not shown: GST tag of the pGST expression vector"}, "B4": {"name": "TIP41 fragment D4 (pHA vector, HEK293T) (other)", "chain": "MLKVACAEEWQESRTEGEHSKEVIKPYDWTYTTDYKGTLLGESLKLKVVPTTDHIDTEKLKAREQIKFFEEVLLFEDELHDHGVSSL", "notes": "also called TIP41-D4; not shown: HA tag of the pHA vector"}, "B5": {"name": "TIP41 fragment D5 (pHA vector, HEK293T) (other)", "chain": "MMIHGFQSSHRDFCFGPWKLTASKTHIMKSADVEKLADELHMPSLPEMMFGDNVLRIQHGSGFGIEFNATDALRCVNNYQGMLKVACAEEWQESRTEGEH", "notes": "also called TIP41-D5; not shown: HA tag of the pHA vector"}, "B6": {"name": "TIP41 fragment D2 (pHA vector, HEK293T) (other)", "chain": "MMIHGFQSSHRDFCFGPWKLTASKTHIMKSADVEKLADELHMPSLPEMMFGDNVLRIQHGSGFGIEFNATDALRCVNNYQGMLKVACAEEWQESRTEGEHSKEVIKPYDWTYTTDYKGTLLGESLKLKVVPTTDHIDTEKLKAREQIKFFEEVLLFEDELHDHGVSSLSVKIRVMPSSFFLLLRFFLRIDGVLIRMNDTRLYHEADKTYMLREYTSRESKISSLMHVPPS", "notes": "also called TIP41-D2; not shown: HA tag of the pHA vector"}, "B7": {"name": "TIP41 fragment D1 (pHA vector, HEK293T) (other)", "chain": "MMIHGFQSSHRDFCFGPWKLTASKTHIMKSADVEKLADELHMPSLPEMMFGDNVLRIQHGSGFGIEFNATDALRCVNNYQGMLKVACAEEWQESRTEGEHSKEVIKPYDWTYTTDYKGTLLGESLKLKVVPTTDHIDTEKLKAREQIKFFEEVLLFEDELHDHGVSSL", "notes": "also called TIP41-D1; not shown: HA tag of the pHA vector"}},
  "key": {"[1]": {"target": "T1, MKK7 in cell lysate (immunoprecipitated with MKK7 antibody; the cells' own MKK7) (human, UniProt O14733 2-419, limits assumed)", "T1 sequence": "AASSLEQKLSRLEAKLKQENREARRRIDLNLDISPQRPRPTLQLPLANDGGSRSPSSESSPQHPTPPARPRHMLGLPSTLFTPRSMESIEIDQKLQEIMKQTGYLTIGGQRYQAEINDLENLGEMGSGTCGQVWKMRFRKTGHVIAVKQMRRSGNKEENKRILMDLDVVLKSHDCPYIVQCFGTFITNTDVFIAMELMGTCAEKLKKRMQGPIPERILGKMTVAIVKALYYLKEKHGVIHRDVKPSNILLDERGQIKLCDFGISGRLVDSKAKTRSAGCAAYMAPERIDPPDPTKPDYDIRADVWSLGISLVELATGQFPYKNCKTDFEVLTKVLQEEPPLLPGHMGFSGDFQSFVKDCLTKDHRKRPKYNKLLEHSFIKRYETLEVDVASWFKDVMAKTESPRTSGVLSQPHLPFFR", "test": "immunoprecipitation (legend of FIG. 11B)", "description": "In order to identify interaction between TIP41 and MKK7, each antibody was used to perform immunoprecipitation, and binding between TIP41 and MKK7 was identified with Western Blotting. Immunoprecipitation is done by adding about 2 μg antibody of protein to be precipitated into 1 mg cell lysate and reacted for about 2 hours in about 4° C., and add about 30 μl Protein G sepharose bead into each and react for about 12 hours in about 4° C. Afterwards, about 1 ml PBST[0.1% Tween20 included PBS] buffer was added for washing, and the procedure was repeated for about 4 times. Then 100 μl 1× sample buffer (for Western Blotting) was added into the washed bead, and then it was boiled for about 5 minutes in about 95° C. heating block, and was cooled in ice for about 2 minutes. Afterwards, Western Blotting was performed using MKK7 and TIP41 antibody."}, "[2]": {"target": "T2, MKK7 fragment D1 (pGST vector, HEK293T) (human, UniProt O14733 85-419, limits assumed)", "T2 construct": "also called MKK7-D1; not shown: GST tag of the pGST expression vector", "T2 sequence": "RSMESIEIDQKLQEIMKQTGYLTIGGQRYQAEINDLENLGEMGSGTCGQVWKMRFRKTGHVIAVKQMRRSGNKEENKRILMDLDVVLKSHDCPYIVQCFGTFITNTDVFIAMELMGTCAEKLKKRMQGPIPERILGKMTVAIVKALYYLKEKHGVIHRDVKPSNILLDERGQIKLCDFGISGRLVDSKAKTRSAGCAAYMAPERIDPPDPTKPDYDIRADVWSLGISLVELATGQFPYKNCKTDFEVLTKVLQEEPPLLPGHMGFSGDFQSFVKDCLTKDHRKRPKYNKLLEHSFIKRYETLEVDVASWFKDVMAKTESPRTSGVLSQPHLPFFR", "test": "GST pull-down from HEK293T lysate, Western blot"}, "[3]": {"target": "B2", "test": "GST pull-down from HEK293T lysate, Western blot"}, "[4]": {"target": "T3, MKK7 (full length MKK7 expressed from the pGST vector in HEK293T cells) (human, UniProt O14733 1-419)", "T3 construct": "also called full length MKK protein; not shown: GST tag of the pGST (pEBG) vector", "T3 sequence": "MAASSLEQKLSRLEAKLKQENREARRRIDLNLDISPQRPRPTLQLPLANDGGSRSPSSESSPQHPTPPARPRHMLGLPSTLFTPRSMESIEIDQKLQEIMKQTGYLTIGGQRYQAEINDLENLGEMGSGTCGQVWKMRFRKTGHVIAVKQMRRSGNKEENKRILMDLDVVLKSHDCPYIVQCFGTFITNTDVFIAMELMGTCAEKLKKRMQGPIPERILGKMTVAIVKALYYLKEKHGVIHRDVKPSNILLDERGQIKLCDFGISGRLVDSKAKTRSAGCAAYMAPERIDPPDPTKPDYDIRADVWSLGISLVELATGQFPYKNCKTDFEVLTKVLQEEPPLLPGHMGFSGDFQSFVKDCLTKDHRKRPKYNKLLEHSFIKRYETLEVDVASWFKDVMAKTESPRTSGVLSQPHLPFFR", "test": "GST pull-down from HEK293T lysate, Western blot"}},
  "data": [
    {"binder": "B1", "values": [
      {"measurement": "binding result", "setting": "[1]", "result": "binds"}
    ]},
    {"binder": "B2", "values": [
      {"measurement": "binding result", "setting": "[2]", "result": "no binding"}
    ]},
    {"binder": "B3", "values": [
      {"measurement": "binding result", "setting": "[3]", "result": "no binding"}
    ]},
    {"binder": "B4", "values": [
      {"measurement": "binding result", "setting": "[4]", "result": "no binding"}
    ]},
    {"binder": "B5", "values": [
      {"measurement": "binding result", "setting": "[4]", "result": "no binding"}
    ]},
    {"binder": "B6", "values": [
      {"measurement": "binding result", "setting": "[4]", "result": "no binding"}
    ]},
    {"binder": "B7", "values": [
      {"measurement": "binding result", "setting": "[4]", "result": "no binding"}
    ]}
  ]
}
